# Key:
# [1] = target: Recombinant, his tagged full length human frataxin protein (Abcam ab95502) (human) (UniProt Q16595); test: Simoa sandwich 2-step; capture Ab-4; frataxin 100 pg/mL
# [2] = target: Recombinant, his tagged full length human frataxin protein (Abcam ab95502) (human) (UniProt Q16595); test: Simoa sandwich 2-step; capture Ab-1; frataxin 55.6 pg/mL
# [3] = target: Recombinant, his tagged full length human frataxin protein (Abcam ab95502) (human) (UniProt Q16595); test: Simoa sandwich 3-step; capture Ab-1
# [4] = target: Recombinant, his tagged full length human frataxin protein (Abcam ab95502) (human) (UniProt Q16595); test: Simoa sandwich 2-step (120 min-5 min); capture Ab-1; Diluent 1 + 5% NCS
# [5] = target: Recombinant, his tagged full length human frataxin protein (Abcam ab95502) (human) (UniProt Q16595); test: Simoa sandwich 2-step; capture Ab-1; 50 pM SβG; frataxin 0.686 pg/mL
# [6] = target: Recombinant, his tagged full length human frataxin protein (Abcam ab95502) (human) (UniProt Q16595); test: Simoa sandwich 2-step (120 min-5 min); capture Ab-1; Diluent 1 + 5% NCS; frataxin 333 pg/mL
# [7] = target: Recombinant, his tagged full length human frataxin protein (Abcam ab95502) (human) (UniProt Q16595); test: Simoa sandwich 2-step (35 min-5 min); capture Ab-1; with helper beads; frataxin 2.06 pg/mL
# [8] = target: Recombinant, his tagged full length human frataxin protein (Abcam ab95502) (human) (UniProt Q16595); test: Simoa sandwich 2-step (120 min-5 min); capture Ab-1; frataxin 2000 pg/mL
# [9] = target: Recombinant, his tagged full length human frataxin protein (Abcam ab95502) (human) (UniProt Q16595); test: Simoa sandwich 2-step (120 min-5 min); capture Ab-1; frataxin 8.23 pg/mL
# [10] = target: Recombinant, his tagged full length human frataxin protein (Abcam ab95502) (human) (UniProt Q16595); test: Simoa sandwich 3-step; capture Ab-1; frataxin 100 pg/mL
# [11] = target: Recombinant, his tagged full length human frataxin protein (Abcam ab95502) (human) (UniProt Q16595); test: Simoa sandwich 2-step (120 min-5 min); capture Ab-1; Diluent 1 + 10% NCS; frataxin 4.12 pg/mL
# [12] = target: Recombinant, his tagged full length human frataxin protein (Abcam ab95502) (human) (UniProt Q16595); test: Simoa sandwich 2-step; capture Ab-4; frataxin 1000 pg/mL
# [13] = target: Recombinant, his tagged full length human frataxin protein (Abcam ab95502) (human) (UniProt Q16595); test: Simoa sandwich 2-step; capture Ab-1; frataxin 2.06 pg/mL
# [14] = target: Recombinant, his tagged full length human frataxin protein (Abcam ab95502) (human) (UniProt Q16595); test: Simoa sandwich 3-step; capture Ab-5
# [15] = target: Recombinant, his tagged full length human frataxin protein (Abcam ab95502) (human) (UniProt Q16595); test: Simoa sandwich 2-step (120 min-5 min); capture Ab-1; Diluent 1 + 5% NCS; frataxin 22.2 pg/mL
# [16] = target: Recombinant, his tagged full length human frataxin protein (Abcam ab95502) (human) (UniProt Q16595); test: Simoa sandwich 2-step (120 min-5 min); capture Ab-1; Diluent 1 + 5% NCS; remark: listed apart in the source
# [17] = target: Recombinant, his tagged full length human frataxin protein (Abcam ab95502) (human) (UniProt Q16595); test: Simoa sandwich 2-step (35 min-5 min); capture Ab-1; with helper beads; frataxin 18.5 pg/mL
# [18] = target: Recombinant, his tagged full length human frataxin protein (Abcam ab95502) (human) (UniProt Q16595); test: Simoa sandwich 2-step; capture Ab-1; frataxin 6.17 pg/mL
# [19] = target: Recombinant, his tagged full length human frataxin protein (Abcam ab95502) (human) (UniProt Q16595); test: Simoa sandwich 2-step (120 min-5 min); capture Ab-1; Diluent 1 + 10% NCS; frataxin 37.0 pg/mL
# [20] = target: Recombinant, his tagged full length human frataxin protein (Abcam ab95502) (human) (UniProt Q16595); test: Simoa sandwich 2-step; capture Ab-2; frataxin 167 pg/mL
# [21] = target: Recombinant, his tagged full length human frataxin protein (Abcam ab95502) (human) (UniProt Q16595); test: Simoa sandwich 3-step; capture Ab-2; frataxin 10000 pg/mL
# [22] = target: Recombinant, his tagged full length human frataxin protein (Abcam ab95502) (human) (UniProt Q16595); test: Simoa sandwich 2-step (120 min-5 min); capture Ab-1; Diluent 1 + 5% NCS; frataxin 0.274 pg/mL
# [23] = target: Recombinant, his tagged full length human frataxin protein (Abcam ab95502) (human) (UniProt Q16595); test: Simoa sandwich 2-step; capture Ab-1; 50 pM SβG
# [24] = target: Recombinant, his tagged full length human frataxin protein (Abcam ab95502) (human) (UniProt Q16595); test: Simoa sandwich 2-step (35 min-5 min); capture Ab-1; with helper beads; frataxin 500 pg/mL
# [25] = target: Recombinant, his tagged full length human frataxin protein (Abcam ab95502) (human) (UniProt Q16595); test: Simoa sandwich 2-step (120 min-5 min); capture Ab-1
# Chain of UniProt Q16595 (Q16595 42-210): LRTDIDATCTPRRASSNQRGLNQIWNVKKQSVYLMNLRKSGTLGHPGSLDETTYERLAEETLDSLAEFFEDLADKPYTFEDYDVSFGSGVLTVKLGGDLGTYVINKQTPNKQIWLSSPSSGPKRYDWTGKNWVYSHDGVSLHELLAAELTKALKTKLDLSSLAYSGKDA
substance,measurement,setting,value
"Ab-3, mouse monoclonal [18A5DB1] to Frataxin (Abcam ab110328) (antibody)",Ave AEB,[1],8.49 AEB
same,S/B,[1],69.3
same,Ave AEB,[2],5.52 AEB
same,S/B,[2],53.2
same,LOD,[3],0.59 pg/mL
same,LOD,[4],0.419 pg/mL
same,Ave AEB,[5],0.0421 AEB
same,S/B,[5],2.3
same,Ave AEB,[6],3.06 AEB
same,S/B,[6],279
same,AEB Rep1,[7],0.146 AEB
same,AEB Rep2,[7],0.143 AEB
same,Ave AEB,[7],0.144 AEB
same,S/B,[7],5.93
same,AEB rep1,[8],9.8 AEB
same,AEB rep2,[8],10.1 AEB
same,AEB rep3,[8],9.8 AEB
same,Ave AEB,[8],9.9 AEB
same,S/B,[8],1200
same,AEB rep1,[9],0.0466 AEB
same,AEB rep2,[9],0.048 AEB
same,AEB rep3,[9],0.0517 AEB
same,Ave AEB,[9],0.0487 AEB
same,S/B,[9],5.91
same,Ave AEB,[10],2.47 AEB
same,S/B,[10],50
same,Ave AEB,[11],0.0283 AEB
same,S/B,[11],2.63
same,Ave AEB,[12],23.7 AEB
same,S/B,[12],193
same,Ave AEB,[13],0.318 AEB
same,S/B,[13],3.06
same,LOD,[14],1.73 pg/mL
same,Ave AEB,[15],0.395 AEB
same,S/B,[15],21.9
same,LOD,[16],0.268 pg/mL
same,AEB Rep1,[17],1.14 AEB
same,AEB Rep2,[17],1.19 AEB
same,Ave AEB,[17],1.16 AEB
same,S/B,[17],47.8
same,Ave AEB,[18],0.737 AEB
same,S/B,[18],7.1
same,Ave AEB,[19],0.174 AEB
same,S/B,[19],16.2
same,Ave AEB,[20],14.1 AEB
same,S/B,[20],148
same,Ave AEB,[21],32.2 AEB
same,S/B,[21],725
same,Ave AEB,[22],0.0228 AEB
same,S/B,[22],1.26
same,LOD,[23],0.132 pg/mL
same,AEB Rep1,[24],22.8 AEB
same,AEB Rep2,[24],22.7 AEB
same,Ave AEB,[24],22.8 AEB
same,S/B,[24],935
same,LOD,[25],0.465 pg/mL
